Test system: Ovalbumin-specific OTII T cells
Assay: Adoptive transfer of ovalbumin-specific OTII T cells, Foxp3 expression and total Treg (Example 5)
Format: in vivo, mice
Conditions: OTII T cells adoptively transferred prior to treatment
Description: However, expansion of antigen-specific Treg can be more desirable than expansion of total Treg. The ability of ImmTOR plus antigen combined with IL-2 mutein to induce and/or expand antigen-specific Treg was evaluated. Ovalbumin-specific OTII T cells were adoptively transferred into mice prior to treatment with ovalbumin and ImmTOR and/or IL-2 mutein.

B1: ovalbumin (protein, UniProt P01012 2-386, looked up)
Ovalbumin: GSIGAASMEFCFDVFKELKVHHANENIFYCPIAIMSALAMVYLGAKDSTRTQINKVVRFDKLPGFGDSIEAQCGTSVNVHSSLRDILNQITKPNDVYSFSLASRLYAEERYPILPEYLQCVKELYRGGLEPINFQTAADQARELINSWVESQTNGIIRNVLQPSSVDSQTAMVLVNAIVFKGLWEKAFKDEDTQAMPFRVTEQESKPVQMMYQIGLFRVASMASEKMKILELPFASGTMSMLVLLPDEVSGLEQLESIINFEKLTEWTSSNVMEERKIKVYLPRMKMEEKYNLTSVLMAMGITDVFSSSANLSGISSAESLKISQAVHAAHAEINEAGREVVGSAEAGVDAASVSEEFRADHPFLFCIKHIATNAVLFFGRCVSP
notes: model antigen administered to mice
percentage of Foxp3+ OTII cells: ~6%
